Experiment [1] concerns the target HU-3pE-beta-Amyloid (human). As to the kind of experiment: SPR; HU-3pE-beta-Amyloid 0.6 to 4.5 nM. A general note: Surface plasmon resonance follows binding to a sensor surface in real time, without labels.
The target of experiment [2] is cynomolgus FcRn (cynomolgus) (UniProt Q8SPV9). As to the kind of experiment: FcRn binding affinity; method not described; average of 5-6 replicates.
In another experiment the target is human FcRn (human) (UniProt P55899). The description is as above.
human FcRn (human), sequence (P55899 24-297 limits assumed, chain 1 of 2): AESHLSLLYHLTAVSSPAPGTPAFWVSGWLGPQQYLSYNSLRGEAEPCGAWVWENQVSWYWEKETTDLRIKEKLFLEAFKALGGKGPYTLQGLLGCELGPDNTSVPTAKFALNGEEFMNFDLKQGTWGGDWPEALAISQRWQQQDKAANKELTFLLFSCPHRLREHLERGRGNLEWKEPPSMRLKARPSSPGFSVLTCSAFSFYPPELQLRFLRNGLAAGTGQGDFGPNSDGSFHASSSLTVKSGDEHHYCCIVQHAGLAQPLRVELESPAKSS
human FcRn (human), sequence (P61769 21-119 limits assumed, chain 2 of 2, further chain): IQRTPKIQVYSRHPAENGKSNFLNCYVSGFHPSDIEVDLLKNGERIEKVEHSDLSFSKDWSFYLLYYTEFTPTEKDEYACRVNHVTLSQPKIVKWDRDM

cynomolgus FcRn (cynomolgus), sequence (Q8SPV9 24-297 limits assumed, chain 1 of 2): as the sequence (P55899 24-297 limits assumed, chain 1 of 2) above, with N39D, E44Q, G99S, S189G, S190N, L217M, S269T counted along it
cynomolgus FcRn (cynomolgus), sequence (Q8SPW0 21-119 limits assumed, chain 2 of 2, further chain): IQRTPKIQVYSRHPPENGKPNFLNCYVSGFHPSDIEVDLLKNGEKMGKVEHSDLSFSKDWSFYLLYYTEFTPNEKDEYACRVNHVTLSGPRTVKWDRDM

Turning to Control mAb (antibody), in experiment [1], the Kd – broadly, the free concentration of one partner at which half of the binding sites on the other are occupied at equilibrium, for simple one-to-one binding – stood at 0.0379 nM; the koff (in general, a measure of how fast the partners let go of each other) worked out at 0.000156 s⁻¹; the on-rate (kon) (commonly the second-order rate constant of association) came to 4.11e+06 M⁻¹ s⁻¹.

Take IgG1 control (antibody): the figures for the Kd (in experiment [2]; with human FcRn (human)) were 430 nM and 443 nM, respectively.

Values taken from US20220177560A1.
